From patent US20220396619A1 (Eli Lilly, published 2022)

Key:
[1] = target: T1, soluble human CD200R long isoform extracellular domain (ECD)-His polypeptide (human, UniProt Q8TD46 29-265); assay: SPR (Biacore T200), antibody captured on Protein A, receptor ECD-His as analyte, 37 C, n = 3
T1 construct: Bought from R&D Systems, Cat. No. 10053-CD-050; also called Human CD200R long isoform ECD-His; human CD200R-ECD long isoform-His
T1 sequence: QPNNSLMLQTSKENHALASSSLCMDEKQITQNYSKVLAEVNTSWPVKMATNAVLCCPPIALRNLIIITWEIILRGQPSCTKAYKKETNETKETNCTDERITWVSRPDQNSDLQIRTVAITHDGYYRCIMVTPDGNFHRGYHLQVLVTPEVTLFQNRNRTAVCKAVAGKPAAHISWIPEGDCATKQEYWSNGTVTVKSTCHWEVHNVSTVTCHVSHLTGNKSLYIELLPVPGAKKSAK
From the text: (§1) A BIACORE™ T200 (GE Healthcare, Piscataway, N.J.) is used to measure the binding kinetics and affinities of Antibody A to soluble human CD200R long isoform extracellular domain (ECD)-His polypeptide (SEQ ID NO: 17) (R&D Systems Cat. No. 10053-CD-050) and soluble cynomolgus monkey CD200R long isoform ECD-His polypeptide (SEQ ID NO: 19). Cynomolgus monkey CD200R ECD long isoform-His is expressed in HEK293 or CHO cells and purified using Ni SEPHAROSE™ excel column (GE Healthcare Life Sciences) and size exclusion chromatography.
(§2) A Series S CM4 chip (GE Healthcare Ca. No. BR-1005-34) is prepared using the manufacturer's EDC/NHS amine coupling method (GE Healthcare Cat. No. BR-1000-50). Briefly, the surfaces of all 4 flow cells are activated by injecting a 1:1 mixture of EDC/NHS for 7 minutes at 10 μL/minute. Protein A (Calbiochem Cat. No. 539202) is diluted to 100 μg/mL in 10 mM acetate pH 4.5 buffer and immobilized for approximately 400 RU onto all 4 flow cells by 7 minute injection at a flow rate of 10 μL/minute. Un-reacted sites are blocked with a 7 minute injection of ethanolamine at 10 μL/minute. Injections of 2×10 μL of glycine pH 1.5 are used to remove any non-covalently associated protein. Running buffer is 1× HBS-EP+ (10 mM HEPES, 150 mM NaCl, 0.05% Tween-20, pH 7.6, Teknova Cat. No. H8022).
(§3) Binding is evaluated using multi-cycle kinetics by an antibody capture method. Samples are diluted in 1× HBS-EP+ running buffer with 0.25% IgG free BSA (Jackson Immuno Research Cat. No. 001-000-161). Each cycle is performed at 37° C. at a flow rate of 20 μL/min for antibody capture to the Protein A chip and 30 μL/min for analyte association and dissociation.

[2] = target: T2, soluble cynomolgus monkey CD200R long isoform ECD-His polypeptide (cynomolgus monkey); assay: as above
T2 construct: Expressed in HEK293 or CHO cells; also called cynoCD200R long isoform ECD-His; cynoCD200R-ECD long isoform-His
T2 chain: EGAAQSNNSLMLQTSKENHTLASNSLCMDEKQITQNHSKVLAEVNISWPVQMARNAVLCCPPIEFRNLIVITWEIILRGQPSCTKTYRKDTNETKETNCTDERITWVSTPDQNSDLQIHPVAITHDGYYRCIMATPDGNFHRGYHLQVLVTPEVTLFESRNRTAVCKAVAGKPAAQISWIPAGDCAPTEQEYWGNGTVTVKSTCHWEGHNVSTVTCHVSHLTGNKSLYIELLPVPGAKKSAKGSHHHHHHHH
From the text: as §1, §2, §3

[3] = target: T3, Human CD200R short isoform (human, UniProt Q8TD46 46-348); assay: flow cytometry on CHO cells expressing the receptor; midpoint of titration, one-site saturation fit
T3 construct: Stably expressed on CHO cells; also called human CD200R short isoform on CHO cells
T3 sequence: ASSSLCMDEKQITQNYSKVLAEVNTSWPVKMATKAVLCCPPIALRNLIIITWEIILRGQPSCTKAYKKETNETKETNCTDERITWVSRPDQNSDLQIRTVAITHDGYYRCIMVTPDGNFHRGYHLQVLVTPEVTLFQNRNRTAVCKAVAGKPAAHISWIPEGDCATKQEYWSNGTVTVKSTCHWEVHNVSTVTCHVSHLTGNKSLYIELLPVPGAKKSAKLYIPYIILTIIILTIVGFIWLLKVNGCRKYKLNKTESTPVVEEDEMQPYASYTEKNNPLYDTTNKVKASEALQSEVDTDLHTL
Procedure: (§4) To perform flow cytometry, CD200R-expressing CHO cells are counted using a Vicell counter and pelleted by centrifugation at 1200 RPM, aspirated and resuspended in phosphate buffered saline (PBS). Cells are counted again and after another centrifugation are adjusted to 10⁶ cells/mL in flow cytometry wash buffer (PBS w/10% NGS & 2% FBS & 0.05% NaN₃) with Fc block (BD Biosciences). Cells are blocked on ice for 15 minutes. Next the tubes are centrifuged, aspirated, and washed once with cold wash buffer. After the wash, the cells are adjusted to 10⁶ cells/mL in wash buffer and plated at […] (50 μL) in a 96-well tissue culture plate (Corning 3799). Antibody A is titrated (1:3 dilutions) on the 96-well polystyrene plates (Corning 3879) starting at 30 μg/mL (final concentration) in cold wash buffer. Next, Antibody A is transferred at 50 μL/well into the Corning 3799 plate containing cells. The plates are incubated on ice for 45 minutes then washed twice with 150 μL cold wash buffer. Next, 100 μL secondary Goat anti-human IgG Fc-PE (Jackson Cat. No. 109-116-098 or Jackson Cat. No. 109-116-088) is added at a 1:500 or 1:400 dilution in wash buffer and incubated for 45 minutes on ice. Plates are washed twice and 200 μL propidium iodide (1:1000 dilution in wash buffer; Molecular Probes Cat. No. P3566) is added as the cell viability stain. The plates are covered with foil on ice. Flow cytometry is then performed using a Fortessa instrument acquiring with FACS Diva software (both from Becton Dickinson) and analyzing with FlowJo (version 10.5.3).
(§5) Antibody A is tested for its binding to recombinantly expressed isoforms of both human and cynomolgus monkey CD200R and the related activating cynomolgus monkey CD200RLa protein on Chinese Hamster Ovary (CHO) cell line surfaces using flow cytometry. The antibody is titrated onto CHO cells expressing the polypeptide of interest. The flow cytometry binding curves are fit using the one-site saturation binding model in GraphPad Prism.

[4] = target: T4, Cynomolgus monkey CD200RLa (cynomolgus monkey); assay: as above
T4 construct: also called cynoCD200RLa
T4 chain: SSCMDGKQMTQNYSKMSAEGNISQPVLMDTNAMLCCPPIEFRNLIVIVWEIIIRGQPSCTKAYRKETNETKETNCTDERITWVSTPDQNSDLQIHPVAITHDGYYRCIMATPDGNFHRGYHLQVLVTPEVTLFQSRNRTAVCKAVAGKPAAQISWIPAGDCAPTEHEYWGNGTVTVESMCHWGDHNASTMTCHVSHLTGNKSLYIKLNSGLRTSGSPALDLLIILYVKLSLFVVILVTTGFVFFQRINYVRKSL
Procedure: as §4, §5

[5] = target: T5, Cynomolgus monkey CD200R long isoform (cynomolgus monkey); assay: as above
T5 construct: Stably expressed on CHO cells; also called cynomolgus monkey CD200R long isoform on CHO cells
T5 chain: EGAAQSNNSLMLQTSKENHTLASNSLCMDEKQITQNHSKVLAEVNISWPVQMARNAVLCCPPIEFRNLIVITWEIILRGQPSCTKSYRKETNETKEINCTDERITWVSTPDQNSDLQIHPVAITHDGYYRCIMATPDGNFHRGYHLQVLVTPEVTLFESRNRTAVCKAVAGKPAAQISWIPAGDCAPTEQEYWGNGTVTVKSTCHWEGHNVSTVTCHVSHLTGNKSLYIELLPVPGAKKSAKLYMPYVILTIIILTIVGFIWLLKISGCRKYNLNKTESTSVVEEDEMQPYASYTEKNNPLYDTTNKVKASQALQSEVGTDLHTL
Procedure: as §4, §5

[6] = target: T6, Human CD200R long isoform (human, UniProt Q8TD46 25-348); assay: as above
T6 construct: Stably expressed on CHO cells; also called human CD200R long isoform on CHO cells
T6 chain: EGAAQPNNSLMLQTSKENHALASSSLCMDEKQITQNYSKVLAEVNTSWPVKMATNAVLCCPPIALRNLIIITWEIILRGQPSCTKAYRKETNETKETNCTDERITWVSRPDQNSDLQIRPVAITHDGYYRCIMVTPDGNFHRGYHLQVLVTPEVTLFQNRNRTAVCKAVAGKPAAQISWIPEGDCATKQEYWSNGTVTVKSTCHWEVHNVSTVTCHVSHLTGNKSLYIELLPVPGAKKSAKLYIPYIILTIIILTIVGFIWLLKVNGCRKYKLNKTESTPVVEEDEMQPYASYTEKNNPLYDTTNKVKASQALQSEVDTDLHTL
Procedure: as §4, §5

Kd [2]: 93.2 nM | Stoichiometry [2]: 2.6 | koff [2]: 0.00056 s⁻¹ | kon [2]: 6200 M⁻¹ s⁻¹ | EC50 [4]: 3.7 µg/mL | EC50 [5]: 2.3 µg/mL
B1: Antibody A (antibody, human IgG4 S228P, kappa, F234A L235A, V domains shown)
VH: QVQLVESGGGVVQPGRSLRLSCAASGFTFSRYGMHWVRQAPGKGLEWVAVIPYDGSNKYYADSVKGRFTISRDISKNTLYLQMNSLRAEDTAVYYCARRGYYDSSGYYYFYYGMDVWGQGTTVTVSS
VL: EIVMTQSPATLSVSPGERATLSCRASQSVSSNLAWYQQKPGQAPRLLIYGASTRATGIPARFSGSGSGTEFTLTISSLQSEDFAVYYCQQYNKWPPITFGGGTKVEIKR
notes: The control used beside it is IgG4-PAA; also called Anti-human CD200R (Antibody A)
Kd [1]: 34.8 nM | Stoichiometry [1]: 1.9 | koff [1]: 0.00016 s⁻¹ | kon [1]: 4700 M⁻¹ s⁻¹ | EC50 [3]: 1.1 µg/mL | EC50 [6]: 3.2 µg/mL
